Laboratory results published in the supplement of paper PMC7125110.
± gives the standard error. For part of these data: Fewer inactive variants are shown than the library holds.

B1: glmS ribozyme (parent)
chain: AUAAAAGCGCCAGAACUACAGAAAUGUAGUUGACGAGGAGGAGGUUUAUCGAAUUUUCGGCGGAUGCCUCCAAA

Columns and labels:
Conditions in all cases: with glucosamine-6-phosphate
glucosamine-6-phosphate [1] = variants of: B1; assay: kcat; higher = faster cleavage; RNA array
How it was run: (§1)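 On sequenced MiSeq chips, barcoded ribozyme variants were made in situ by E. coli RNA polymerase and followed at 37 °C through a hybridised Cy3 probe. Glucosamine-6-phosphate was flowed in at 40 μM to 10 mM in HEPES/KCl/Mg(OAc)2 buffer. Exponential fits to normalised per-tile medians gave kobs, and weighted Michaelis–Menten fits gave kcat and KM.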

glucosamine-6-phosphate [2] = variants of: B1; assay: KM; higher = weaker cofactor use; RNA array
How it was run: as §1

glucosamine-6-phosphate [3] = variants of: B1; assay: self-cleavage kobs at 160 uM GlcN6P; higher = faster cleavage; RNA array
How it was run: as §1

glucosamine-6-phosphate [4] = variants of: B1; assay: self-cleavage kobs at 640 uM GlcN6P; higher = faster cleavage; RNA array
How it was run: as §1

glucosamine-6-phosphate [5] = variants of: B1; assay: self-cleavage kobs at 2500 uM GlcN6P; higher = faster cleavage; RNA array
How it was run: as §1

glucosamine-6-phosphate [6] = variants of: B1; assay: self-cleavage kobs at 10000 uM GlcN6P; higher = faster cleavage; RNA array
How it was run: as §1

glucosamine-6-phosphate [7] = variants of: B1; assay: self-cleavage kobs at 40 uM GlcN6P; higher = faster cleavage; RNA array
How it was run: as §1

Variant | kcat (glucosamine-6-phosphate [1]) [s⁻¹] | KM (glucosamine-6-phosphate [2]) [µM] | self-cleavage kobs at 160 uM GlcN6P (glucosamine-6-phosphate [3]) [s⁻¹] | self-cleavage kobs at 640 uM GlcN6P (glucosamine-6-phosphate [4]) [s⁻¹] | self-cleavage kobs at 2500 uM GlcN6P (glucosamine-6-phosphate [5]) [s⁻¹] | self-cleavage kobs at 10000 uM GlcN6P (glucosamine-6-phosphate [6]) [s⁻¹] | self-cleavage kobs at 40 uM GlcN6P (glucosamine-6-phosphate [7]) [s⁻¹]
U31G U56C | 0.000772 ± 3.5e-05 | 2210 ± 180 | 4.9e-05 ± 1.7e-05 | 0.000179 ± 2.9e-05 | 0.000413 ± 0.00012 | 0.000628 ± 9.2e-05 | 
G32C A42G | 0.000211 ± 3.7e-05 |  |  |  | 3.92e-05 ± 9.5e-06 | 0.000103 ± 1.3e-05 | 
G32C A42U | < 1e-05 |  | < 1e-05 |  | < 1e-05 |  | 
U31C A53C | 0.00137 ± 0.00011 | 2260 ± 350 | 0.00011 ± 3.6e-05 | 0.00028 ± 8e-05 | 0.0007 ± 0.00011 | 0.00116 ± 0.0002 | 
U31C G59A | 1.58e-05 ± 4.5e-06 |  |  |  |  |  | 
G32U G66C | 5.37e-05 ± 2.7e-06 | 7240 ± 850 |  |  |  | 3.11e-05 ± 1.2e-05 | < 1e-05
G32U G66A | 0.000468 ± 5.1e-05 | 3020 ± 560 |  | 8.47e-05 ± 1e-05 | 0.00021 ± 2.9e-05 | 0.000358 ± 4.3e-05 | 
G32U G66U | 9.79e-05 ± 9.9e-06 | 7290 ± 1700 |  |  |  | 5.66e-05 ± 1.4e-05 | 
U31A U46A | 0.00237 ± 0.00062 | 5680 ± 2600 | 4.27e-05 ± 1.9e-05 | 0.000292 ± 9.4e-05 | 0.000857 ± 0.0002 | 0.00149 ± 0.00018 | 3.33e-05 ± 1.3e-05
A33C U45A | 0.000472 ± 1.3e-05 | 3500 ± 180 |  | 7.41e-05 ± 1.9e-05 | 0.000197 ± 2.9e-05 | 0.00035 ± 5.3e-05 | 
U31C C71U | 0.00657 ± 0.0031 |  | 0.000289 ± 3.6e-05 | 0.00111 ± 0.00013 | 0.00536 ± 0.00083 | 0.00504 ± 0.00056 | 0.000177 ± 1.7e-05
G32U U57C | 4.06e-05 ± 2.6e-06 | 2420 ± 550 |  |  |  | 3.26e-05 ± 8.4e-06 | 
U31C U45G | 0.000845 ± 0.00014 | 1870 ± 570 | 9.65e-05 ± 1.9e-05 | 0.000189 ± 2.7e-05 | 0.000505 ± 6.4e-05 | 0.000713 ± 9.2e-05 | 
U31G C58G | 0.000125 ± 1.3e-05 | 1100 ± 400 |  | 5.51e-05 ± 1.3e-05 | 7.65e-05 ± 1.2e-05 | 0.000119 ± 1.3e-05 | 
G32U G51A | < 1e-05 |  |  |  |  |  | < 1e-05
G32C G37A U55A C67A C68A | 4.68e-05 ± 2.3e-05 |  |  | 7.47e-05 ± 3.5e-05 |  |  | 
G32C G41U | < 1e-05 |  | < 1e-05 |  |  |  | < 1e-05
G32C U46G | 1.21e-05 ± 4.8e-07 | 349 ± 150 |  |  |  |  | 

Variant | kcat (glucosamine-6-phosphate [1]) [s⁻¹] | KM (glucosamine-6-phosphate [2]) [µM] | self-cleavage kobs at 160 uM GlcN6P (glucosamine-6-phosphate [3]) [s⁻¹] | self-cleavage kobs at 640 uM GlcN6P (glucosamine-6-phosphate [4]) [s⁻¹] | self-cleavage kobs at 2500 uM GlcN6P (glucosamine-6-phosphate [5]) [s⁻¹] | self-cleavage kobs at 10000 uM GlcN6P (glucosamine-6-phosphate [6]) [s⁻¹] | self-cleavage kobs at 40 uM GlcN6P (glucosamine-6-phosphate [7]) [s⁻¹]
A33G G63C | < 1e-05 |  |  | < 1e-05 |  |  | < 1e-05
G32U C71A | 0.000322 ± 6.6e-05 | 4080 ± 1900 |  | 3.16e-05 ± 1.1e-05 | 0.000161 ± 2.6e-05 | 0.000222 ± 2.3e-05 | 
G32A G59A C68U | 1.04e-05 ± 2.4e-06 |  |  |  |  |  | 
U31C A52G C67U | 0.000208 ± 9.4e-05 |  |  | 9.07e-05 ± 3.5e-05 | 6.61e-05 ± 1.4e-05 | 0.000147 ± 2.6e-05 | 
U31G C71G | 0.000461 ± 0.0001 | 408 ± 180 | 0.000111 ± 2.7e-05 |  | 0.000329 ± 7.1e-05 | 0.000555 ± 9.7e-05 | 5.48e-05 ± 1.3e-05
A33G C50G | 0.000122 ± 3.3e-05 |  | 7.8e-05 ± 1.6e-05 | 0.000161 ± 2.3e-05 | 0.000102 ± 1.6e-05 |  | 
U31C C70A | 6.32e-05 ± 4.7e-06 | 135 ± 56 | 2.96e-05 ± 1.2e-05 | 5.83e-05 ± 9.7e-06 | 5.7e-05 ± 1.6e-05 | 5.89e-05 ± 1.2e-05 | 
G32A A42G | 0.00505 ± 0.0014 | 3140 ± 1200 | 0.000193 ± 3.2e-05 | 0.00133 ± 0.00025 | 0.00281 ± 0.00043 | 0.00357 ± 0.00047 | 7.49e-05 ± 1.3e-05
A33C C61A | < 1e-05 |  |  |  |  | < 1e-05 | 
A33C U54C | 0.00039 ± 4.2e-05 | 1950 ± 360 |  | 0.0001 ± 1.7e-05 | 0.000217 ± 3.9e-05 | 0.000325 ± 9.2e-05 | 
U31C C50G | 6.62e-05 ± 2.8e-05 |  | 0.000114 ± 1.7e-05 | 0.000104 ± 2e-05 | 8.9e-05 ± 1.3e-05 |  | 2.9e-05 ± 1.3e-05
G32A G59U | 1.15e-05 ± 1.2e-06 | 3350 ± 1300 |  |  |  |  | 
G32A G59A | 1.74e-05 ± 3.1e-06 |  | < 1e-05 |  |  |  | 
A33C U46G | 9.24e-05 ± 1.2e-05 | 1050 ± 490 |  | 2.94e-05 ± 1.3e-05 | 8.65e-05 ± 2.1e-05 | 7.98e-05 ± 1.3e-05 | 
G32U C58G | 0.00149 ± 0.00016 | 8790 ± 1300 | 3.01e-05 ± 9.4e-06 | 0.000102 ± 1.7e-05 | 0.000294 ± 7.3e-05 | 0.000802 ± 9.7e-05 | 
U31G U54C | 0.014 ± 0.0061 |  | 0.000516 ± 0.00013 | 0.00289 ± 0.00053 | 0.00559 ± 0.00098 | 0.0136 ± 0.0038 | 0.000233 ± 4e-05
A33G G38C | < 1e-05 |  | < 1e-05 |  |  |  | < 1e-05
